The source of these data is CN101538329A.

Assay [1] concerns the target β-淀粉样多肽 Aβ1-42 (beta-amyloid peptide, purified) (human) (UniProt P05067). The assay can be described thus: repeated phage ELISA on coated Aβ, OD490, against negative control. For orientation: In an ELISA, binding on a coated surface is turned into a signal by an enzyme label.
Assay [2] has the same target. The assay can be described thus: phage ELISA on coated Aβ, OD490, against negative control (2% MPBS).
Assay [3] shares this target. The assay can be described thus: ELISA on coated Aβ, whole-cell protein fraction; induced against uninduced strain.
Assay [4] has the same target. As to the kind of experiment: ELISA on coated Aβ, culture supernatant fraction; induced against uninduced strain.
Assay [5] shares this target. The assay can be described thus: ELISA of soluble scFv fractions on coated Aβ, anti-c-myc detection; induced against uninduced strain.

UniProt P05067, sequence (P05067 672-713 limits assumed): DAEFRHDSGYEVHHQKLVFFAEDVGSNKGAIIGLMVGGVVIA

B1: A10 单克隆噬菌体抗体 (phage-displayed human anti-Aβ scFv, clone A10) (scFv, part only; not given: linker, tag and phage fusion, not shown: small tags and cut ends; large carriers)
scFv (part 1 of 2), part: EVQLVQSGAEVKRPGSSVNVSCKASGGTLSNYGLSWVRQAPGQGLEWMGGIIPSFGPANYAQIFQGRVTITADESTNTAYMELRSLTSDDTAVYYCAREGGVGVATTYWLDPWGQGTTVTVSS
scFv (part 2 of 2), part: HFMLTQPHSVSESPGKTVTISCTRSSGSIASTYVHWYQQRPGTSPTTVIYEDNRRHSRVPDRFSGSIDSSSNSASLTISGLKTEDEGDYYCQSYDSTNAWVFGGGTKVTVLG
Turning to B1, the ELISA A值 fold over negative control in assay [1] is greater than 5 fold; in assay [2], 2 fold.

B2: F2 单克隆噬菌体抗体 (phage-displayed human anti-Aβ scFv, clone F2) (scFv, part only; not given: linker, tag and phage fusion, not shown: small tags and cut ends; large carriers)
scFv (part 1 of 2), part: EVQLVQSGAEVKRPGSSVNVSCKASGGTLSNYGLSWVRQAPGQGLEWMGGIIPSFGPANYAQIFQGRVTITADESTNTAYMELRSLTSDDTAVYYCAREGGVGVATTYWLDPWGQGTTVTVSS
scFv (part 2 of 2), part: HFMLTQPHSVSESPGKTVTISCTRSSGSIASTYVHWYQQRPGTSPTTVIYEDNRRHSRVPDRFSGSIDSSSNSASLTISGLKTEDEGDYYCQSYDSTNAWVFGGGTKVTVLG
As to B2, the ELISA A值 fold over negative control in assay [1] was greater than 5 fold; in assay [2], greater than 2 fold.

B3: A10 可溶性抗Aβ scFv (soluble scFv of clone A10 expressed in E. coli HB2151) (scFv, V domains shown, not shown: small tags and cut ends)
VH: EVQLVQSGAEVKRPGSSVNVSCKASGGTLSNYGLSWVRQAPGQGLEWMGGIIPSFGPANYAQIFQGRVTITADESTNTAYMELRSLTSDDTAVYYCAREGGVGVATTYWLDPWGQGTTVTVSS
VL: HFMLTQPHSVSESPGKTVTISCTRSSGSIASTYVHWYQQRPGTSPTTVIYEDNRRHSRVPDRFSGSIDSSSNSASLTISGLKTEDEGDYYCQSYDSTNAWVFGGGTKVTVLG
As for B3, the figures for the ELISA A值 fold of induced over uninduced strain in assay [3], in assay [4] and in assay [5] were greater than 5 fold, greater than 5 fold and greater than 2 fold, respectively.

B4: F2 可溶性抗Aβ scFv (soluble scFv of clone F2 expressed in E. coli HB2151) (scFv, V domains shown, not shown: small tags and cut ends)
VH: EVQLVQSGAEVKRPGSSVNVSCKASGGTLSNYGLSWVRQAPGQGLEWMGGIIPSFGPANYAQIFQGRVTITADESTNTAYMELRSLTSDDTAVYYCAREGGVGVATTYWLDPWGQGTTVTVSS
VL: HFMLTQPHSVSESPGKTVTISCTRSSGSIASTYVHWYQQRPGTSPTTVIYEDNRRHSRVPDRFSGSIDSSSNSASLTISGLKTEDEGDYYCQSYDSTNAWVFGGGTKVTVLG
On to B4, for which the ELISA A值 fold of induced over uninduced strain was greater than 5 fold in assay [3], greater than 5 fold in assay [4] and greater than 2 fold in assay [5].
